The text below walks through data of US20260250737A1, “Engineered Luciferases and Luciferin Substrates” (Monod Bio, Inc., priority 2023, published 2026).

The chains are these.
B1: MBIO-158: LuxSit-i variant W100F (protein)
chain: MSEEQIRQFLRRFYEALDSGDADTAASLFHPGVTIHLWDGVTFTSREEFREWFERLFSTSKDAQREIKSLEVRGDTVEVHVQLHATHNGQKHTVDLTHHFHFRGNRVTEVRVHINPTG
B2: MBIO-150: LuxSit-i variant F9S, SEQ ID NO 73 (protein)
chain: B1 chain with F9S, F100W
B3: MBIO-157: LuxSit-i variant Q64W, SEQ ID NO 47 (protein)
chain: B1 chain with Q64W, F100W
B4: MBIO-156: LuxSit-i variant H87L, SEQ ID NO 88 (protein)
chain: B1 chain with H87L, F100W
B5: MBIO-149: LuxSit-i variant A85F, SEQ ID NO 82 (protein)
chain: B1 chain with A85F, F100W
B6: MBIO-151: LuxSit-i variant F9S_A85F_H87L, SEQ ID NO: 7 (protein)
chain: B1 chain with F9S, A85F, H87L, F100W
B7: MBIO-152: LuxSit-i variant F9S_A85F_H87L_Q64W, SEQ ID NO: 6 (protein)
chain: B1 chain with F9S, Q64W, A85F, H87L, F100W
B8: MBIO-147: LuxSit-i variant W100F_A85F_H87L, SEQ ID NO: 3 (protein)
chain: B1 chain with A85F, H87L
B9: MBIO-154: LuxSit-i variant F9V_A85F_H87L, SEQ ID NO: 5 (protein)
chain: B1 chain with F9V, A85F, H87L, F100W
B10: MBIO-155: LuxSit-i variant F9V_A85F_H87L_Q64W, SEQ ID NO: 4 (protein)
chain: B1 chain with F9V, Q64W, A85F, H87L, F100W
B11: LgLux_4039: Large Lux fragment of MBIO-4039 (protein)
chain: MSEEQIRQNLRRFYEALDSGDAITAASLFDPGVTITLWDGTTFTSVEEFREWFESQFSTSKDALREISSLEVRGDTVEVTVRLSFTRNGQKHTVDLLQLFKFV
B12: SEQ ID NO 2813: LgLux_4039 EP-PCR mutant T34I (protein)
chain: B11 chain with T34I
B13: SEQ ID NO 2812: LgLux_4039 EP-PCR mutant L64F (protein)
chain: B11 chain with L64F
B14: SEQ ID NO 2811: LgLux_4039 EP-PCR mutant N9I, N88D (protein)
chain: B11 chain with N9I, N88D
B15: SEQ ID NO 2814: LgLux_4039 EP-PCR mutant E51V, K61T (protein)
chain: B11 chain with E51V, K61T

Positions count from the first letter of the chain named. Names and notes keep the numbering of the source.

System in the first data set: not listed separately
In words: Luciferase activity (brightness) of LuxSit-i variants. As to conditions: Table 2; single substitutions; relative to LuxSit-i. In kind it is biochemical. The procedure: SSM was performed to evaluate the effect of single mutations on the luciferase activity of LuxSit-i. FIG. 3 graphically presents the mutation frequency at the positions found in the SSM as beneficial for increasing luciferase activity.
FIG. 4A provides data for luciferase activity for MBIO-148, MBIO-158 and Luxsit-i. MBIO-148, MBIO-158, and Luxsit-i were serially diluted starting from a final in-well concentration of 10,000 pM. Each dilution was combined with Diphenylterazine (DTZ) to a final in-well concentration of […]. Points shown are from the initial reading once the plate read was started.
FIG. 4B provides data for luciferase activity for MBIO-148, MBIO-301, MBIO-302, and LuxSit-i. MBIO-148, MBIO-301, MBIO-302, and Luxsit-i were serially diluted starting from a final in-well concentration of 500 pM. Each dilution was combined with DTZ to a final in-well concentration of 10 μM. Points shown are from the initial reading once the plate read was started.
For B1, the Brightness improvement result is reported as “Slight increase”.

In the case of B2, the Brightness improvement entry was “No change”.

B3: the Brightness improvement entry is reported as “Slight increase”.

Turning to B4, the Brightness improvement result is listed as “Slight increase”.

B5: the Brightness improvement result is “Slight increase”.

The same data set, now with this note: Table 3; combined substitutions; relative to LuxSit-i.
With B6, the Brightness improvement entry is “No change”.

For B7, the Brightness improvement entry is given as “Slight increase”.

As to B8, the Brightness improvement result is reported as “Increase”.

Regarding B9, the Brightness improvement entry was “Slight increase”.

Regarding B10, the Brightness improvement entry is “Slight increase”.

Another data set concerns SmLux. Briefly: Computationally generated LgLux variants expressed in E. coli, tested in lysates with SmLux and substrate 1c. In kind it is biochemical. As to conditions: 20 uM SmLux, 50 uM substrate 1c. In short, it runs like this:
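Variants expressed in E. coli and screened as lysates, complemented with 20 uM SmLux and given 50 uM substrate 1c; luminescent activity measured.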
In the case of B11, the “Fold change upon SmLux peptide addition” value is 214.43.

The same data set, now with this note: 50 uM substrate 1c, before SmLux peptide addition.
Regarding B11, the “Baseline Signal (Normalized by expression)” value came out at 299.2.

Still in this data set, the particulars now being: Table 22, 20 uM SmLux, 50 uM substrate 1c.
For the molecule B11, the “Fold change upon SmLux peptide addition” value was determined as 360.49.

The data set is the same for the next values; noted with them: Table 22, 50 uM substrate 1c.
Regarding B11, the “Baseline Signal (Normalized by expression)” value was 1766.6.

System in a further data set: not listed separately
In words: Stability of LuxSit-i variants (yeast display protease resistance, static light scattering). In kind it is physicochemical. As to conditions: Table 2; single substitutions; relative to LuxSit-i. As to the method:
In certain aspects, these polypeptides have improved stability at high temperatures as compared to LuxSit-i. For example, these polypeptides are stable at higher temperatures as compared to LuxSit-i. Stability may be measured by enzymatic activity and/or protein misfolding measured over a period of time. In certain embodiments, stability may be measured using static light scattering (SLS).
A single saturation mutagenesis (SSM) was performed to evaluate by yeast display the effect of single mutations in the stability of LuxSit-i (SEQ ID NO:1). The SSM library was transformed into electrocompetent cells of the strain EBY100. Twenty million cells were labeled with anti-myc FITC antibody in order to detect protein expression on the yeast surface by measuring fluorescence emission. Cells were sorted using a Sony SH800 cell sorter and those showing protein expression (FITC signal) were collected and grown. DNA was extracted from the sorted cells using conventional DNA extraction conventional methods. The DNA library was sequenced using Nanopore technology. Single amino acid substitutions that increase protein stability are enriched after sorting.
(§1) Single saturation mutagenesis (SSM) was performed to evaluate (by yeast display) the effect of single mutations in the stability of LuxSit-i-i. The SSM library was transformed into electrocompetent cells of the strain EBY100. Twenty million cells were labeled with an anti-myc FITC antibody to detect protein expression on the yeast surface by measuring the emission of fluorescence by FITC. Yeast were incubated with a mixture of 3.5 uM trypsin and 1.4 uM chymotrypsin (1/729 dilution of the stock solution) at 25° C. for 15 min. Cells were sorted using a Sony SH800 cell sorter and those showing protein expression (FITC signal) after protease incubation were collected and grown. DNA was extracted from the sorted cells using conventional DNA extraction conventional methods. The DNA library was sequenced using Nanopore technology. Single amino acid substitutions that increase protein stability are enriched after sorting.
as §1, with “LuxSit-i.” for “LuxSit-i-i.”, “antibody in order” for “antibody”, “10” for “3.5”, “4” for “1.4”, “(1/243” for “(1/729”
as §1, with “LuxSit-i.” for “LuxSit-i-i.”, “antibody in order” for “antibody”, “15” for “3.5”, “6” for “1.4”, “(1/162” for “(1/729”, “sorting. […]” for “sorting.”
With B1, the Stability improvement entry is recorded as “Monomeric”.

Take B2: the Stability improvement entry is recorded as “Monomeric”.

Take B3: the Stability improvement entry is listed as “No change”.

B4: the Stability improvement result is given as “No change”.

With B5, the Stability improvement entry is on record as “No change”.

Still in this data set, the particulars now being: Table 3; combined substitutions; relative to LuxSit-i.
With B6, the Stability improvement result was “No change”.

For the molecule B7, the Stability improvement result is “Slight improvement”.

For B8, the Stability improvement entry is recorded as “Monomeric”.

Turning to B9, the Stability improvement entry is recorded as “Slight improvement”.

B10: the Stability improvement entry is “Slight improvement”.

The subject of the next data set is SmLux. Briefly: LgLux stability optimization: error-prone PCR LgLux mutants on yeast, protease treatment, SmLux complementation. The following applies: Table 20; EP-PCR LgLux mutants on yeast; 50 uM substrate 1c. In kind it is biochemical. As to the method:
LgLux mutants were generated by error-prone PCR (EP-PCR) and treated with protease and their activity measured as depicted schematically in FIG. 44.
Yeast expressing a library of the LgLux mutants were incubated with proteases and screened to select variants that were stable enough to resist proteolysis. Functional variants were selected by adding 50 uM of substrate 1c and 200 nM of SmLux.
The nucleotide sequence encoding LgLux_4039 was subjected to EP-PCR to identify protease-stable mutants. The sequences (SEQ ID NOs: 2806-2814) and activity of the mutants are summarized below in Table 20.
Take B11: the “Baseline Signal (Normalized by expression)” value worked out at 417.8.

As for B12, the “Baseline Signal (Normalized by expression)” value worked out at 241.6.

As to B13, the “Baseline Signal (Normalized by expression)” value stood at 233.2.

With B14, the “Baseline Signal (Normalized by expression)” value stood at 232.7.

For B15, the “Baseline Signal (Normalized by expression)” value stood at 934.2.

The data set is the same for the next values; noted with them: Table 20; EP-PCR LgLux mutants on yeast; 50 uM substrate 1c, 200 nM SmLux.
B11: the “Fold change upon SmLux peptide addition” value was 78.5.

Consider B12, for which the “Fold change upon SmLux peptide addition” value was 52.

Consider B13, for which the “Fold change upon SmLux peptide addition” value is 61.7.

For the molecule B14, the “Fold change upon SmLux peptide addition” value amounted to 55.5.

B15: the “Fold change upon SmLux peptide addition” value was determined as 53.1.

In another data set the test system is construct containing Small Lux (SmLux), Large Lux (LgLux), FKBP and FRB. In words: LuxSit split optimization: SmLux-LgLux-FKBP-FRB construct on the surface of yeast, rapamycin-induced signal. It is filed as biochemical. The following applies: Table 19, LgLux variants, 50 uM substrate 1c. The procedure: To optimize the function of the LuxSit Splits, a construct containing Small Lux (SmLux), Large Lux (LgLux) and the proteins that bind the molecule Rapamycin (FKBP and FRB), connected by GS linkers, was expressed on the surface of yeast. When 50 uM of substrate 1c is added to yeast expressing this construct, a baseline signal is observed due to SmLux and LgLux reconstitution. When 20 uM of Rapamycin is added, SmLux and LgLux are brought closer to each other by FKBP and FRB, enhancing their reconstitution. As a result, an increase in signal is observed.
Libraries of SmLux and LgLux were assembled and tested independently to identify variants with lower baseline and higher fold change.
In the case of B11, the “Baseline Signal (Normalized by expression)” value is 22064.6.

The same data set, now with this note: Table 19, LgLux variants, 50 uM substrate 1c, 20 uM Rapamycin.
Turning to B11, the “Fold change upon Rap addition” value is reported as 1.9.
